Data from patent US20220403025A1 (GAMMADELTA THERAPEUTICS, published 2022).
Residue numbers refer to the chain shown, from its start.

B1: 1245_P01_G06 (IgG1) (antibody, V domains shown)
VH: QVQLVESGGGLVKPGGSLRLSCAASGFTFSDYYMSWIRQAPGKGLEWVSYISSSGSTIYYADSVKGRFTISRDNAKNSLYLQMNSLRAEDTAVYYCARHSWNDAFDVWGQGTLVTVSS
VL: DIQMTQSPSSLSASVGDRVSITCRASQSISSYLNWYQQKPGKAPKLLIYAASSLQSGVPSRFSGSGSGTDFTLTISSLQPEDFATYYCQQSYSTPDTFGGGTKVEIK
B2: 1245_P01_E07 (IgG1) (antibody, V domains shown)
VH: B1 VH with H99V, S100D, W101Y, N102A, V107I
VL: DIQMTQSPSSLSASVGDRVTIACRAGQSIGTYLNWYQQKPGKAPKLLIYVASSLQSGVPSRFSGSGSGTEFTLTISSLQPEDFATYYCQQSYSTLLTFGRGTKVEIK
B3: 1139_P01_E04 (IgG1) (antibody, V domains shown)
VH: QVQLQQSGPGLVKPSQTLSLTCAISGDSVSSNSAAWNWIRQSPSRGLEWLGRTYYRSKWYNDYAVSVRSRITINPDTSKNQFSLQLNSVTPEDTAVYYCARSWNDAFDIWGQGTTVTVSS
VL: DIVMTQSPSTLSASIGDRVTITCRAGQSISTWLAWYQQKPGKAPKLLIYDASSLESGVPLRFSGSGSGTDFTLTISSLQPEDFATYYCQQSYSTPLTFGGGTKVEIK
B4: 1245_P01_G09 (IgG1) (antibody, V domains shown)
VH: QVQLQQSGPGLVKPSQTLSLTCAISGDSVSSNSAAWNWIRQSPSRGLEWLGRTYYGSKWYNEYALSVKSRIIINPDTSKNQFSLQLNSVTPEDTAVYYCARDYYYSMDVWGQGTLVTVSS
VL: B3 VL with D70E, T74A, E81D, L96V, G100Q
B5: 1252_P01_C08 (IgG1) (antibody, V domains shown)
VH: EVQLLESGGGLVQPGRSLRLSCAASGFTVSSNYMSWVRQAPGKGLEWVSVIYSGGSTYYADSVKGRFTISRDNSKNTLYLQMNSLRAEDTAVYYCASPIELGAFDIWGQGTLVTVSS
VL: SSYELTQPPSVSVAPGKTARITCGGNNIGSQSVHWYQQKPGQAPMLVIYYDSDRPSGIPERFSGSNSGNTATLTISRVEAGDEADYYCQVWDSSSDHVVFGGGTKLTVL
B6: 1245_P02_G04 (IgG1, made in HEK) (antibody, V domains shown)
VH: QVQLQQSGPGLVKPSQTLSLTCAISGDSVSSKSAAWNWIRQSPSRGLEWLGRTYYRSKWSTDYAASVKSRITINPDTSKNQLSLQLNSVTPEDTAVYYCARTWSGYVDVWGQGTLVTVSS
VL: DIQMTQSPPALSASVGDRVTITCRASQDINDWLAWYQHKPGKAPKLLIYDASSLESGVPSRFSGSGSGTEFTLTISSLQPDDFATYYCQQSYSTPQVTFGQGTRLEIK

target: Vδ1 γδ T cell receptor on skin-derived γδ T cells (human); assay: cell-based or functional assay

Binder | T cell degranulation (EC50 µg/ml - 3 donors) | Killing assay (EC50 µg/ml - 2 or 3 donors)
B1 | 0.001 µg/mL | 
B2 |  | 0.06 µg/mL
B3 | 0.005 µg/mL | 
B4 | 0.001 µg/mL | 
B5 |  | 0.02 µg/mL
B6 | 0.002 µg/mL | 0.1 µg/mL
